First the molecules themselves.
T1: human AMHRII (anti-Mullerian hormone receptor type 2) (human, UniProt Q16671 18-573)
T1 construct: whole, on cells; also called AMHR2; human AMHR2
T1 sequence (looked up): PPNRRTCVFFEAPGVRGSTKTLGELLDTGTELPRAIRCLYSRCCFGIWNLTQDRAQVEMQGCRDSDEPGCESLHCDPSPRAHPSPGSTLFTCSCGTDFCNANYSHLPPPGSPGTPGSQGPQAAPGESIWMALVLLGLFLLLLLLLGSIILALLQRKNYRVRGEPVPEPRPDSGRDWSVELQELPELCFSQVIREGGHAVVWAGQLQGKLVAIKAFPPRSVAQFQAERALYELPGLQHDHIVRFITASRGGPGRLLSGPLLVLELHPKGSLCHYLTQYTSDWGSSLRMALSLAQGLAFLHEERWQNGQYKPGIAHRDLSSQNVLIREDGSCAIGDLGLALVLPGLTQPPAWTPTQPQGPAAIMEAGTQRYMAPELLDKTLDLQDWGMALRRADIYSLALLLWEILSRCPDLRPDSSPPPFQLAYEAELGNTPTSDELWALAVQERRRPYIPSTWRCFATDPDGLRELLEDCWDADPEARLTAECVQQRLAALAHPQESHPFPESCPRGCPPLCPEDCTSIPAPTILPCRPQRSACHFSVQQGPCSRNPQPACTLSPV

B1: 94C4C3 H3L2 hIgG1 (antibody, V domains shown)
VH: QVQLQESGPGLVKPSETLSLTCTVSGYSITSDYAWNWIRQFPGKGLEWMGYISYSGSISYNPSLKSRITISRDTSKNQFFLKLSSVTAADTAVYYCARSRYSWFDYWGQGTLVTVSS
VL: EIVLTQSPGTLSLSPGERATLSCSASESVDTYGNSFMHWYQQKPGQPPRLLIYRASSLESGIPVRFSGSGSRTDFTLTISRLEPEDFAVYYCQQSNEDPYTFGGGTKVEIK
notes: Humanized, human IgG1; also called 94C4C3 H3L2 hlgG1
B2: 94C4C3 H4L1 hIgG1 (antibody, V domains shown)
VH: B1 VH with S25T, G45K, K82Q
VL: B1 VL with P47A, V64D, R72G
notes: Humanized, human IgG1; also called 94C4C3 H4L1 hlgG1
B3: 94C4C3 H3L3 hIgG1 (antibody, V domains shown)
VH: B1 VH
VL: B1 VL with L82V, P84A, V108L
notes: Humanized, human IgG1; also called 94C4C3 H3L3 hlgG1
B4: 94C4C3 H4L2 hIgG1 (antibody, V domains shown)
VH: B1 VH with S25T, G45K, K82Q
VL: B1 VL
notes: Humanized, human IgG1; also called 94C4C3 H4L2 hlgG1
B5: 94C4C3 H3L4 hIgG1 (antibody, V domains shown)
VH: B1 VH
VL: B1 VL with E1D, L13V, R49K, L82V, P84A, V108L
notes: Humanized, human IgG1; also called 94C4C3 H3L4 hlgG1
B6: 94C4C3 H3L1 hIgG1 (antibody, V domains shown)
VH: B1 VH
VL: B1 VL with P47A, V64D, R72G
notes: Humanized, human IgG1; also called 94C4C3 H3L1 hlgG1
B7: 94C4C3 H2L1 hIgG1 (antibody, V domains shown)
VH: B1 VH with V2L, F41P, F80S
VL: B1 VL with P47A, V64D, R72G
notes: Humanized, human IgG1; also called 94C4C3 H2L1 hlgG1
B8: 94C4C3 H2L4 hIgG1 (antibody, V domains shown)
VH: B1 VH with V2L, F41P, F80S
VL: B1 VL with E1D, L13V, R49K, L82V, P84A, V108L
notes: Humanized, human IgG1; also called 94C4C3 H2L4 hlgG1
B9: 94C4C3 H2L3 hIgG1 (antibody, V domains shown)
VH: B1 VH with V2L, F41P, F80S
VL: B1 VL with L82V, P84A, V108L
notes: Humanized, human IgG1; also called 94C4C3 H2L3 hlgG1
B10: 31D9B3 VH1-VL2.2 hIgG1 (antibody, V domains shown)
VH: QVQLVQSGAEVKKPGASVKVSCKASGYTFTDYWVSWVRQAPGQGLEWMGEIYPKNGVSNFNEKFKGRVTMTTDTSTSTAYMELRSLRSDDTAVYYCARQRDYWGQGTLVTVSS
VL: DVVMTQSPLSLPVTLGQPASISCRSSQSLEYGDRYTYLEWYLQRPGQSPRLLIYGVSNRFSGVPDRFSGSGSGTDFTLKISRVEAEDVGVYYCFQATHDPNTFGQGTKLEIK
notes: Humanized, PTM de-risked (VL G(30D)R), human IgG1; also called 31D9B3 VH1-VL2.2 hlgG1
B11: 31D9B3 VH1.2-VL2 hIgG1 (antibody, V domains shown)
VH: B10 VH with G56D
VL: B10 VL with R34G
notes: Humanized, PTM de-risked (VH G55D), human IgG1; also called 31D9B3 VH1.2-VL2 hlgG1
B12: 31D9B3 VH1.3-VL2 hIgG1 (antibody, V domains shown)
VH: B10 VH with G56Q
VL: B10 VL with R34G
notes: Humanized, PTM de-risked (VH G55Q), human IgG1; also called 31D9B3 VH1.3-VL2 hlgG1
B13: 31D9B3 VH1.2-VL2.2 hIgG1 (antibody, V domains shown)
VH: B10 VH with G56D
VL: B10 VL
notes: Humanized, PTM de-risked, human IgG1; also called 31D9B3 VH1.2-VL2.2 hlgG1
B14: 31D9B3 VH1.3-VL2.1 hIgG1 (antibody, V domains shown)
VH: B10 VH with G56Q
VL: B10 VL with D33S, R34G
notes: Humanized, PTM de-risked, human IgG1; also called 31D9B3 VH1.3-VL2.1 hlgG1
B15: 31D9B3 VH1.2-VL2.3 hIgG1 (antibody, V domains shown)
VH: B10 VH with G56D
VL: B10 VL with D33T, R34G
notes: Humanized, PTM de-risked, human IgG1; also called 31D9B3 VH1.2-VL2.3 hlgG1
B16: 31D9B3 VH1.2-VL2.1 hIgG1 (antibody, V domains shown)
VH: B10 VH with G56D
VL: B10 VL with D33S, R34G
notes: Humanized, PTM de-risked, human IgG1; also called 31D9B3 VH1.2-VL2.1 hlgG1
B17: 31D9B3 VH1.3-VL2.3 hIgG1 (antibody, V domains shown)
VH: B10 VH with G56Q
VL: B10 VL with D33T, R34G
notes: Humanized, PTM de-risked, human IgG1; also called 31D9B3 VH1.3-VL2.3 hlgG1
B18: 108F3D1E9 H3L1 hIgG1 (antibody, V domains shown)
VH: B1 VH with Y33F, Y54F, I58T, F80S, R98G, D105A
VL: DIQMTQSPSSLSASVGDRVTITCRASESVDTYGNSFMHWYQQKPGKAPKLLIYRASNLESGVPSRFSGSGSGTDFTLTISSLQPEDFATYYCQQSNEDPYTFGGGTKVEIK
notes: Humanized, human IgG1; also called 108F3D1E9 H3L1 hlgG1
B19: 108F3D1E9 H4L4 hIgG1 (antibody, V domains shown)
VH: B1 VH with Y33F, Y54F, I58T, K82Q, A89E, R98G, D105A
VL: DIVLTQSPSSLSVSVGDRATITCRASESVDTYGNSFMHWYQQKPGQPPKLLIYRASNLESGIPARFSGSGSRTDFTLTISSVQPEDFATYYCQQSNEDPYTFGGGTKLEIK
notes: Humanized, human IgG1; also called 108F3D1E9 H4L4 hlgG1
B20: 108F3D1E9 H4L3 hIgG1 (antibody, V domains shown)
VH: B1 VH with Y33F, Y54F, I58T, K82Q, A89E, R98G, D105A
VL: B19 VL with V13A, A19V, R72G, L108V
notes: Humanized, human IgG1; also called 108F3D1E9 H4L3 hlgG1
B21: 108F3D1E9 H3L4 hIgG1 (antibody, V domains shown)
VH: B1 VH with Y33F, Y54F, I58T, F80S, R98G, D105A
VL: B19 VL
notes: Humanized, human IgG1; also called 108F3D1E9 H3L4 hlgG1
B22: 108F3D1E9 H4L2 hIgG1 (antibody, V domains shown)
VH: B1 VH with Y33F, Y54F, I58T, K82Q, A89E, R98G, D105A
VL: B18 VL with M4L, A47P, V62I
notes: Humanized, human IgG1; also called 108F3D1E9 H4L2 hlgG1
B23: 108F3D1E9 H3L3 hIgG1 (antibody, V domains shown)
VH: B1 VH with Y33F, Y54F, I58T, F80S, R98G, D105A
VL: B19 VL with V13A, A19V, R72G, L108V
notes: Humanized, human IgG1; also called 108F3D1E9 H3L3 hlgG1
B24: 108F3D1E9 H4L1 hIgG1 (antibody, V domains shown)
VH: B1 VH with Y33F, Y54F, I58T, K82Q, A89E, R98G, D105A
VL: B18 VL
notes: Humanized, human IgG1; also called 108F3D1E9 H4L1 hlgG1
B25: 108F3D1E9 H3L2 hIgG1 (antibody, V domains shown)
VH: B1 VH with Y33F, Y54F, I58T, F80S, R98G, D105A
VL: B18 VL with M4L, A47P, V62I
notes: Humanized, human IgG1; also called 108F3D1E9 H3L2 hlgG1

Results on 25 molecules are retold here after patent US20240400701A1 (LANOVA MEDICINES DEVELOPMENT, published 2024).

Positions count from the first letter of the chain named. In names and notes the source's numbering stands.

The target of one test is T1, human AMHRII (anti-Mullerian hormone …). Briefly: FACS on CHO-K1 cells over-expressing human AMHR2. How it is done: (§1) CHO-K1 cells over-expressed AMHR2 were harvested from flasks. 100 μl of 1×10⁶ cells/ml of cells were incubated with the humanized antibodies in 3-fold serial dilutions starting from 300 nM to 0.001 nM for 30 minutes on ice. After being washed with 200 μl of FACS buffer twice, cells were incubated with secondary antibody for 30 minutes on ice. Cells were washed with 200 μl of FACS buffer twice and analyzed by FACS.
The term EC50 denotes the concentration giving half of the maximal effect. Read a high EC50 as a need for much substance. As to B1, the EC50 came out at 1.23 nM and the “Top (MFI)” value turned out to be 47700 MFI.

In the case of B2, a half-maximal response (EC50) required 1.12 nM and the “Top (MFI)” value was found to be 49500 MFI.

Consider B3, for which the 50% effective concentration (EC50) turned out to be 1.03 nM and the “Top (MFI)” value was found to be 46300 MFI.

Turning to B4, the EC50 came out at 1.02 nM and the “Top (MFI)” value is 48700 MFI.

Regarding B5, the midpoint of the response, the EC50, lay at 1.35 nM and the “Top (MFI)” value was found to be 48100 MFI.

Consider B6, for which the EC50 came to 1.32 nM and the “Top (MFI)” value turned out to be 51000 MFI.

Another test has the same target. Briefly: FACS on CHO-K1 cells over-expressing human AMHR2. The source holds these as a separate data set. How it is done:
as §1
B7: the midpoint of the response, the EC50, lay at 1.31 nM and the “Top (MFI)” value was 52800 MFI.

For B8, the 50% effective concentration (EC50) is 1.01 nM and the “Top (MFI)” value amounted to 52500 MFI.

Consider B9, for which the response was half-maximal at 1.32 nM (EC50) and the “Top (MFI)” value worked out at 55800 MFI.

As to B10, a half-maximal effect (EC50) was put at 0.485 nM and the “Top (MFI)” value came out at 22400 MFI.

A further test shares this target. Briefly: FACS on Rko cells over-expressing human AMHR2. The method, then: Rko cells over-expressing AMHR2 were harvested from flasks. 100 μl of 1×10⁶ cells/ml of cells were incubated with primary PTM antibodies in 3-fold serial dilutions starting from 300 nM to 0.001 nM for 30 minutes on ice. After being washed with 200 μl of FACS buffer twice, cells were incubated with secondary antibody for 30 minutes on ice. Cells were washed with 200 μl of FACS buffer twice and analyzed by FACS.
In the case of B10, the midpoint of the response, the EC50, lay at 0.915 nM and the “Top (MFI)” value was 17200 MFI.

With B11, the EC50 stood at 1.35 nM and the “Top (MFI)” value came to 18200 MFI.

Consider B12, for which a half-maximal response (EC50) required 0.976 nM and the “Top (MFI)” value came out at 17900 MFI.

B13: the EC50 was 0.878 nM and the “Top (MFI)” value was 16300 MFI.

The next test has the same target. Briefly: FACS on CHO-K1 cells over-expressing human AMHR2. The source holds these as a separate data set. The method, then:
as §1
B14: the response was half-maximal at 1.2 nM (EC50) and the “Top (MFI)” value turned out to be 10900 MFI.

Take B11: the EC50 was 1.51 nM and the “Top (MFI)” value is 26800 MFI.

Take B15: the EC50 was found to be 0.617 nM and the “Top (MFI)” value was found to be 12900 MFI.

Turning to B16, the midpoint of the response, the EC50, lay at 5.68 nM and the “Top (MFI)” value worked out at 10600 MFI.

In the case of B17, the concentration for a half-maximal effect (EC50) came to 0.38 nM and the “Top (MFI)” value was determined as 12700 MFI.

As for B12, the EC50 came out at 1.18 nM and the “Top (MFI)” value was found to be 28000 MFI.

As for B13, the EC50 was 0.856 nM and the “Top (MFI)” value came out at 22000 MFI.

A further test shares this target. Kind of test: FACS on CHO-K1 cells over-expressing human AMHR2. The source holds these as a separate data set. How it is done:
as §1
Consider B18, for which the EC50 turned out to be 0.74 nM and the “Top (MFI)” value was determined as 65400 MFI.

On to B19, for which the EC50 worked out at 0.65 nM and the “Top (MFI)” value is 70600 MFI.

With B20, the response was half-maximal at 0.74 nM (EC50) and the “Top (MFI)” value stood at 67300 MFI.

For the molecule B21, the EC50 stood at 0.88 nM and the “Top (MFI)” value was found to be 70900 MFI.

Consider B22, for which the response was half-maximal at 0.68 nM (EC50) and the “Top (MFI)” value was 67900 MFI.

For B23, the concentration for a half-maximal effect (EC50) was 0.82 nM and the “Top (MFI)” value is 66700 MFI.

B24: the half-maximal effective concentration (EC50) turned out to be 0.55 nM and the “Top (MFI)” value was found to be 64400 MFI.

Turning to B25, it took 0.82 nM to reach a half-maximal effect (EC50) and the “Top (MFI)” value turned out to be 64600 MFI.
